Data set [1] deals with Pdmp-lacZ reporter fusion. Description: Liquid β-galactosidase assay, test strain AW101 (Pdmp-lacZ fusion) carrying pAW50 dmpR derivatives, exposed to phenols. The format is cell-based, E. coli. The source says:
Reference will now be made in detail to the present preferred embodiments of the present invention, examples of which are shown in the accompanying drawings. Turning now to FIG. 1, the dmpR wt-N gene (See, e.g., Shingler and Moore, supra) carried on plasmid pAW50 served as the template for amplification of the dpmR sensor domain by mutagenic polymerase chain reaction (PCR). The products resulting from the mutagenic PCR were digested using Ndel and SacII and ligated back into a pAW50 plasmid fragment, from which the wild type Ndel-SacII region had been removed. […] Ligation products were electroporated into AW101 (trp::Pdmp-lacZ fusion). Transformants were initially selected for tetracycline resistance and then replicated onto plates containing X-gal and one of the test phenols. Colonies that developed more blue color than colonies containing wild type DmpR were selected for further analysis with liquid β-galactosidase assays. β-galactosidase activity is proportional to transcription of the Pdmp-lacZ reporter fusion and is, therefore, a measure of particular variant DmpR's ability to detect phenol or specific substituted phenols. This mutagenic procedure led to the identification of more than twenty DmpR derivatives with altered response to phenols. Five of these derivatives are representative of proteins which show significant promise as effective detectors of phenols listed as primary pollutants by the U.S. Environment Protection Agency.
AW101 was used as a test strain to identify and characterize changes in DmpR's sensing capacity subsequent to sensor domain mutagenesis. pAW50 derivatives were electroporated into AW101 and transformants were selected on Luria-Bertani (Difco, Detroit, Mich.) plates containing 10.5 μg/ml tetracycline. Transformants were then replica-plated onto M9 minimal medium (10) plates containing 0.2% glucose, 30 μg/ml tryptophan, 1 μg/ml thiamine, 10.5 μg/ml tetracycline, 0.25% 5-bromo-4-chloro-3-indoyl-β-D-galactoside (X-Gal), and either no inducer (NI) or 0.05 mM of a phenol derivative. Cells that formed blue colonies on plates containing a phenol derivative were subject to liquid β-galactosidase assays.
D. β-Galactosidase Assays. Overnight cultures of AW101 carrying pAW50 derivatives were diluted 1000-fold into Luria-Bertani broth containing 10.5 μg/ml tetracycline. When cells reached an OD595 nm between 0.60 and 0.90 as measured on a Lambda Bio uv/vis spectrophotometer (Perkin Elmer Corp. Analytical Instruments, Norwalk, Conn.), 500 μL samples were pelleted and immediately resuspended in 500 μL spent Luria-Bertani broth containing the appropriate phenol compound. […] Samples were pelleted and frozen at −70° C. for assay the following day.
Liquid β-galactosidase assays were performed using a modification of Miller's assay (Miller, J. H., 1972. “Experiments in Molecular Genetics,” Cold Spring Harbor Laboratory, Cold Spring Harbor, N.Y.). Cell sample pellets were thawed and resuspended in Z buffer. The optical density at 595 nm of each cell suspension was read in a microtiter plate using an automated microplate reader (BIO-TEK Instruments, Inc., Winooski, Vt.). Following the addition of 15 μL 0.1% sodium dodecyl sulfate and 25 μL HCCl3, the remaining cell suspension was vortexed for 30 s to lyse cells. The reaction was begun with the addition of 50 μL o-nitrophenyl-β-D-galactopyranoside (2.5 mg/ml) to the lysed cells. Reactions were incubated at 26° C. until stopped with the addition of 50 μL 1M Na2CO3. Color development of the reactions was read at OD415 on the microplate reader. Arbitrary units for graphing purposes were calculated as (1000×OD415)/(time)(OD595) where time is the reaction time in minutes. Equivalent cell volumes were read for both optical densities.

In data set [2] the test system is Pdmp-lacZ reporter fusion. Briefly: β-galactosidase detection of phenols in contaminated soil by the bacterial test strain. In kind it is cell-based, E. coli. From the text: FIG. 5a compares the detection of 2,4-dichlorophenol by DmpR-B9 (SEQ ID No. 1 hereof) with that for unsubstituted phenol shown in FIG. 5b in contaminated soil, unsubstituted phenol being a natural effector of wild type DmpR. Detection of chemicals in contaminated soil is often difficult because soil may bind the phenols, making them less available to the test bacteria. […] The response of DmpR-B9 to 4 parts per million (ppm) 2,4-dichlorophenol in soil is six-fold higher than that of wild type DmpR. DmpR-B9′s response to 2.5 ppm phenol is four-fold better than that of wild type.

Experimental findings from patent US6773918B2, “Detection of phenols using engineered bacteria” (The Regents of the University of California, priority 1999, dated 2004) are described below.

Where a chain is given by its changes, count along the chain named.

B1: DmpR-B21: engineered DmpR derivative with mutated sensor domain (SEQ ID No. 3 and No. 9) (protein)
chain: MPIKYKPEIQHSDFKDLTNLIHFQSMEGKIWLGEQRMLLLQFSAMASFRREMVNTLGIERAKGLFLRHGYQSGLKDAELARKLRPNASEVGMFLAGPQMHSLKGLVKVRPTGLDIDKEYGRFYAEMEWIDWFEVEICQTDLGQMQDPVCWTVLGYACAYSSAFMGREIIFKEVSCRGCGG
As for B1, the “increase in β-galactosidase activity” value in data set [1] (0.0025 mM solution of 2-chlorophenol (0.3 parts per million)) is listed as 60 fold. Moreover, in data set [1] (2,4-dichlorophenol at 0.025 mM (4 parts per million)), the “response (β-galactosidase activity)” value is reported as “elicits a response”.

B2: DmpR-B9: engineered DmpR derivative with mutated sensor domain (SEQ ID No. 1) (protein)
chain: B1 chain with K4E, F42S, G112E
For B2, the “response relative to wild type” value in data set [2] (2.5 ppm phenol in soil) is reported as “four”. The “response relative to wild type DmpR” value in data set [2] (4 parts per million (ppm) 2,4-dichlorophenol in soil) is given as “six”. In addition, the “capacity to detect phenols in soil compared with wild type protein” value in data set [2] (contaminated soil) is recorded as “significantly better”.

B3: DmpR-D9: engineered DmpR derivative with mutated sensor domain (SEQ ID No. 6) (protein)
chain: B1 chain with G112E, D116G, K117R, F163L
B3: the “response relative to wild type protein” value in data set [1] (2-chlorophenol) is recorded as “nineteen”.

B4: DmpR-B31: engineered DmpR derivative with mutated sensor domain (SEQ ID No. 5) (protein)
chain: B1 chain with I58V, A61T, G112E, D146G
Consider B4, for which the “response to most substituted phenols” value in data set [1] (2,4-dichlorophenol, 2,4-dimethylphenol, 4-nitrophenol (FIG. 6a)) is recorded as “strong response”. Besides, in data set [1] (no inducer (no phenol)), the “uninduced (NI) value” is given as “relatively high”.

B5: DmpR-D12: engineered DmpR derivative with mutated sensor domain (SEQ ID No. 7) (protein)
chain: B1 chain with G112E, L141P
With B5, the entries for the “detection relative to wild type DmpR” value in data set [1] (3 ppm 2,4-dichlorophenol) and in data set [1] (10 ppm 4-chloro-3-methylphenol) were 10 fold and “eight”, respectively.

B6: DmpR-B17#2: engineered DmpR derivative with mutated sensor domain (SEQ ID No. 2) (protein)
chain: B1 chain with G112E
Regarding B6, the “response to low concentrations of phenol” value in data set [1] (2,4-dichlorophenol), in data set [1] (2-nitrophenol) and in data set [1] (4-nitrophenol) was “responds to low concentrations” in each case. Also, in data set [1] (six concentrations of 4-chloro-3-methylphenol), the “detection compared with wild type protein” value is on record as “significantly better detectors”.

B7: DmpR-B23: engineered DmpR derivative with mutated sensor domain (SEQ ID No. 4) (protein)
chain: B1 chain with Q10R, G112E, K117M
Turning to B7, the “response relative to wild type DmpR” value in data set [1] (0.5 ppm 2-chlorophenol, four-hour exposure) is “more than 20 fold”. The “effect of four-hour exposure on detection signal (β-galactosidase activity units)” value in data set [1] (low concentrations of 2-chlorophenol) is listed as “increases the detection signal”. Also, the “detection compared with wild type protein” value in data set [1] (six concentrations of 2-chlorophenol, 60 minute exposure) is “significantly better detectors”.
